Patent US20160354480A1 (VECT HORUS, published 2016)
Bridge positions count the residues as written; N and C are the ends. Square brackets hold non-standard residues; d marks the D form. Ends that are not written are not given here. * marks the point of attachment. Pen = CC(C)(S)[C@H](N)C(=O)O; Tle = CC(C)(C)[C@H](N)C(=O)O; Pip = O=C(O)[C@@H]1CCCCN1; Propionyl = CCC(=O)*; Sar = CNCC(=O)O

B1: compound XVII, SEQ ID NO: 9-[Lys9, Tle12]NT(8-13) (peptide)
peptide: Propionyl-[dC]M[Pip]RLR[Sar]CRKPY[Tle]L-OH
modifications: disulfide 1-8
SMILES: CCC(=O)N[C@@H]1CSSC[C@@H](C(=O)N[C@@H](CCCNC(=N)N)C(=O)N[C@@H](CCCCN)C(=O)N2CCC[C@H]2C(=O)N[C@@H](Cc2ccc(O)cc2)C(=O)N[C@H](C(=O)N[C@@H](CC(C)C)C(=O)O)C(C)(C)C)NC(=O)CN(C)C(=O)[C@H](CCCNC(=N)N)NC(=O)[C@H](CC(C)C)NC(=O)[C@H](CCCNC(=N)N)NC(=O)[C@@H]2CCCCN2C(=O)[C@H](CCSC)NC1=O
B2: compound XIX, SEQ ID NO: 9-[Lys8, Trp11, Tle12]NT(8-13) (peptide)
peptide: Propionyl-[dC]M[Pip]RLR[Sar]CKRPW[Tle]L-OH
modifications: disulfide 1-8
SMILES: CCC(=O)N[C@@H]1CSSC[C@@H](C(=O)N[C@@H](CCCCN)C(=O)N[C@@H](CCCNC(=N)N)C(=O)N2CCC[C@H]2C(=O)N[C@@H](Cc2c[nH]c3ccccc23)C(=O)N[C@H](C(=O)N[C@@H](CC(C)C)C(=O)O)C(C)(C)C)NC(=O)CN(C)C(=O)[C@H](CCCNC(=N)N)NC(=O)[C@H](CC(C)C)NC(=O)[C@H](CCCNC(=N)N)NC(=O)[C@@H]2CCCCN2C(=O)[C@H](CCSC)NC1=O
B3: compound XX, SEQ ID NO: 11-[Lys8, Tle12]NT(8-13) (peptide)
peptide: Propionyl-[dC]M[Pip]RLR[Sar][Pen]KRPY[Tle]L-OH
modifications: disulfide 1-8
SMILES: CCC(=O)N[C@@H]1CSSC(C)(C)[C@@H](C(=O)N[C@@H](CCCCN)C(=O)N[C@@H](CCCNC(=N)N)C(=O)N2CCC[C@H]2C(=O)N[C@@H](Cc2ccc(O)cc2)C(=O)N[C@H](C(=O)N[C@@H](CC(C)C)C(=O)O)C(C)(C)C)NC(=O)CN(C)C(=O)[C@H](CCCNC(=N)N)NC(=O)[C@H](CC(C)C)NC(=O)[C@H](CCCNC(=N)N)NC(=O)[C@@H]2CCCCN2C(=O)[C@H](CCSC)NC1=O
B4: compound XV, SEQ ID NO: 9-[Tle12]NT(8-13) (peptide)
peptide: Propionyl-[dC]M[Pip]RLR[Sar]CRRPY[Tle]L-OH
modifications: disulfide 1-8
SMILES: CCC(=O)N[C@@H]1CSSC[C@@H](C(=O)N[C@@H](CCCNC(=N)N)C(=O)N[C@@H](CCCNC(=N)N)C(=O)N2CCC[C@H]2C(=O)N[C@@H](Cc2ccc(O)cc2)C(=O)N[C@H](C(=O)N[C@@H](CC(C)C)C(=O)O)C(C)(C)C)NC(=O)CN(C)C(=O)[C@H](CCCNC(=N)N)NC(=O)[C@H](CC(C)C)NC(=O)[C@H](CCCNC(=N)N)NC(=O)[C@@H]2CCCCN2C(=O)[C@H](CCSC)NC1=O
B5: compound XVIII, SEQ ID NO: 9-[Trp11, Tle12]NT(8-13) (peptide)
peptide: Propionyl-[dC]M[Pip]RLR[Sar]CRRPW[Tle]L-OH
modifications: disulfide 1-8
SMILES: CCC(=O)N[C@@H]1CSSC[C@@H](C(=O)N[C@@H](CCCNC(=N)N)C(=O)N[C@@H](CCCNC(=N)N)C(=O)N2CCC[C@H]2C(=O)N[C@@H](Cc2c[nH]c3ccccc23)C(=O)N[C@H](C(=O)N[C@@H](CC(C)C)C(=O)O)C(C)(C)C)NC(=O)CN(C)C(=O)[C@H](CCCNC(=N)N)NC(=O)[C@H](CC(C)C)NC(=O)[C@H](CCCNC(=N)N)NC(=O)[C@@H]2CCCCN2C(=O)[C@H](CCSC)NC1=O
B6: compound XVI, SEQ ID NO: 9-[Lys8, Tle12]NT(8-13) (peptide)
peptide: Propionyl-[dC]M[Pip]RLR[Sar]CKRPY[Tle]L-OH
modifications: disulfide 1-8
SMILES: CCC(=O)N[C@@H]1CSSC[C@@H](C(=O)N[C@@H](CCCCN)C(=O)N[C@@H](CCCNC(=N)N)C(=O)N2CCC[C@H]2C(=O)N[C@@H](Cc2ccc(O)cc2)C(=O)N[C@H](C(=O)N[C@@H](CC(C)C)C(=O)O)C(C)(C)C)NC(=O)CN(C)C(=O)[C@H](CCCNC(=N)N)NC(=O)[C@H](CC(C)C)NC(=O)[C@H](CCCNC(=N)N)NC(=O)[C@@H]2CCCCN2C(=O)[C@H](CCSC)NC1=O
B7: compound X, SEQ ID NO: 9-GGG-NT(6-13) (peptide)
peptide: Propionyl-[dC]M[Pip]RLR[Sar]CGGGKPRRPYIL-OH
modifications: disulfide 1-8
SMILES: CCC(=O)N[C@@H]1CSSC[C@@H](C(=O)NCC(=O)NCC(=O)NCC(=O)N[C@@H](CCCCN)C(=O)N2CCC[C@H]2C(=O)N[C@@H](CCCNC(=N)N)C(=O)N[C@@H](CCCNC(=N)N)C(=O)N2CCC[C@H]2C(=O)N[C@@H](Cc2ccc(O)cc2)C(=O)N[C@H](C(=O)N[C@@H](CC(C)C)C(=O)O)[C@@H](C)CC)NC(=O)CN(C)C(=O)[C@H](CCCNC(=N)N)NC(=O)[C@H](CC(C)C)NC(=O)[C@H](CCCNC(=N)N)NC(=O)[C@@H]2CCCCN2C(=O)[C@H](CCSC)NC1=O

How the values were obtained:
[1] = target: T1, rat neurotensin receptor type 1 (rat, UniProt P20789 1-424); assay: competition with [3H]-neurotensin on membranes of HEK 293 cells expressing rat NTR-1; Ki from mean IC50 by Cheng-Prusoff
T1 construct: whole, on cells; Used as membrane homogenates of transfected HEK 293 cells (0.75 ug/well), not intact cells; also called rNTR-1; rNTR1
T1 sequence (P20789 whole entry): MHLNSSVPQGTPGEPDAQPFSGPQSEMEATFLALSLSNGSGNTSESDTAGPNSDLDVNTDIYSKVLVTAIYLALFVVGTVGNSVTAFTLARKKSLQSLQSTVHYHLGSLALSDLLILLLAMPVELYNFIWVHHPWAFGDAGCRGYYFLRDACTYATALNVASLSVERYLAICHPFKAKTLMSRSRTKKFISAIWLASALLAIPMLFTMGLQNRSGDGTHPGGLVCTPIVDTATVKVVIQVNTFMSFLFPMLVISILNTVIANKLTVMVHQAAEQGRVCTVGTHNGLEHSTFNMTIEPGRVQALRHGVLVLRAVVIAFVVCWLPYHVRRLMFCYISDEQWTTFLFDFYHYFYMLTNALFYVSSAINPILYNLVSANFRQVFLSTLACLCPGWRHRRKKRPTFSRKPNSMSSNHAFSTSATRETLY

[2] = target: T2, human neurotensin receptor type 1 (human, UniProt P30989 1-418); assay: competition with [3H]-neurotensin on membranes of CHO cells expressing human NTR-1; Ki from mean IC50 by Cheng-Prusoff
T2 construct: whole, on cells; Used as cell membrane homogenates (0.5 ug/well), not intact cells; also called hNTR-1; Human NTR-1
T2 sequence (P30989 whole entry): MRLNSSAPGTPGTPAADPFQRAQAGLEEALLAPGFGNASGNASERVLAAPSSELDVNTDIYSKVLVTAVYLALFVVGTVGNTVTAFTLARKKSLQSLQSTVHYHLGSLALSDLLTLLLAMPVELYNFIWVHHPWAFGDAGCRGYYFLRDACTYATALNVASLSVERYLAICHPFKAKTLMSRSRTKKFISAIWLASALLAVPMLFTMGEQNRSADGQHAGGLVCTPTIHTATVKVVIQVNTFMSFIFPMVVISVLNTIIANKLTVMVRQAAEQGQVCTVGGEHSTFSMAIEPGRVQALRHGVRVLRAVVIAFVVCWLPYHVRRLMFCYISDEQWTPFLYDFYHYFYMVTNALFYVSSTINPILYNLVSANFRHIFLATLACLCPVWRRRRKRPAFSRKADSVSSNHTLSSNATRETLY

Row | Binder | Ki [1] | Ki [2]
1 | B1 | 190 pM | 470 pM
2 | B2 | 30 pM | 6340 pM
3 | B3 | 80 pM | 110 pM
4 | KRPY[Tle]L (X stands for Tle) [[Lys8, Tle12]NT(8-13)] | 680 pM | 220 pM
5 | RKPY[Tle]L (X stands for Tle) [[Lys9, Tle12]NT(8-13)] | 4200 pM | 1700 pM
6 | RRPW[Tle]L (X stands for Tle) [[Trp11, Tle12]NT(8-13)] | 850 pM | 3100 pM
7 | KRPW[Tle]L (X stands for Tle) [[Lys8, Trp11, Tle12]NT(8-13)] | 3310 pM | 13800 pM
8 | B4 | 60 pM | 400 pM
9 | B5 | 20 pM | 2980 pM
10 | B6 | 120 pM | 150 pM
11 | B7 | – | 130 pM
